B1: Proline-serine-threonine phosphatase-interacting protein 1 (Homo sapiens), O43586 (parent)
chain: MMPQLQFKDAFWCRDFTAHTGYEVLLQRLLDGRKMCKDMEELLRQRAQAEERYGKELVQIARKAGGQTEINSLRASFDSLKQQMENVGSSHIQLALTLREELRSLEEFRERQKEQRKKYEAVMDRVQKSKLSLYKKAMESKKTYEQKCRDADDAEQAFERISANGHQKQVEKSQNKARQCKDSATEAERVYRQSIAQLEKVRAEWEQEHRTTCEAFQLQEFDRLTILRNALWVHSNQLSMQCVKDDELYEEVRLTLEGCSIDADIDSFIQAKSTGTEPPAPVPYQNYYDREVTPLTSSPGIQPSCGMIKRFSGLLHGSPKTTSLAASAASTETLTPTPERNEGVYTAIAVQEIQGNPASPAQEYRALYDYTAQNPDELDLSAGDILEVILEGEDGWWTVERNGQRGFVPGSYLEKL
partner: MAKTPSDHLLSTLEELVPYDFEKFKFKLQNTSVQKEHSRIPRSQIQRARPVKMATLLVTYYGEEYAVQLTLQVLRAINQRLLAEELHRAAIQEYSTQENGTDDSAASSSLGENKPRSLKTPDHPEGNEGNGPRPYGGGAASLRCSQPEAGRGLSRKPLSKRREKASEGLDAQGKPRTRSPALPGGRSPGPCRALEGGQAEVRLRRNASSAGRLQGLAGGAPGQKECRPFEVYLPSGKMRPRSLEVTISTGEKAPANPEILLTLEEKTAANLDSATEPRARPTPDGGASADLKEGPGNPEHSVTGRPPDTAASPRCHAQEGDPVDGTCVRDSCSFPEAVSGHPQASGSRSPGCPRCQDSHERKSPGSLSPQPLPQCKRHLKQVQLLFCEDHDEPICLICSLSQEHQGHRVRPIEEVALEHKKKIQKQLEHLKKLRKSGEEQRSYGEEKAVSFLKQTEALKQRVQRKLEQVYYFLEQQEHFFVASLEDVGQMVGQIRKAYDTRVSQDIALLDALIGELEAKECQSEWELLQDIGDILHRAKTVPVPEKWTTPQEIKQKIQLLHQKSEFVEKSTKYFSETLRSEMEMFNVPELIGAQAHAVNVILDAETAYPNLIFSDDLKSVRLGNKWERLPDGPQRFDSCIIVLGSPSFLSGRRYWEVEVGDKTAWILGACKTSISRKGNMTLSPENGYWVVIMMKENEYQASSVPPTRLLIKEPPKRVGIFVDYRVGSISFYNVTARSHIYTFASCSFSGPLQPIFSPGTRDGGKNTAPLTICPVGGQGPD

Variants of: B1
Conditions: with mefv_human MEFV
E250Q was tested, and the “effect of a mutation on the interaction” value was “increasing interaction strength”. A230T was tested, and the “effect of a mutation on the interaction” value was “increasing interaction strength”.

— IntAct's records for PubMed 17964261
